Literature values, collected in paper PMC7717565, “Structure of the Lifeact–F-actin complex” (PLoS Biology, 2020).

Biological target: F-actin (Oryctolagus cuniculus) (UniProt P68135)

Kd: 13.2 µM
Substance: Lifeact Lifeact (from UniProt Q08641)
